# T1: mouse BTLA, full length, fused to EGFP, on HEK293 FreeStyle cells (mouse, UniProt Q7TSA3 30-306)
# T1 construct: whole, on cells; also called mBTLA; mBTLA-EGFP; not shown: EGFP fused at the C-terminus (pEGFP-N1 vector)
# T1 sequence (looked up): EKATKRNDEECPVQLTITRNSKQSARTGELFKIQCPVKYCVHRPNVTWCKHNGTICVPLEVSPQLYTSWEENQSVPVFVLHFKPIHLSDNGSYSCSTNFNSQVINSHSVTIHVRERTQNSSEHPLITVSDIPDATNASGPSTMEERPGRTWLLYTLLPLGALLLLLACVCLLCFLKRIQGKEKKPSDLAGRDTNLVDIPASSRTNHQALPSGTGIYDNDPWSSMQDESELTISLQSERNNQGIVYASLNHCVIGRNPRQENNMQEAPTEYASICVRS
# T2: mouse LIGHT, full length, on transfected cells (mouse, UniProt Q9QYH9 1-239)
# T2 construct: whole, on cells; also called mLIGHT; mLIGHT-IRES-EGFP
# T2 sequence (looked up): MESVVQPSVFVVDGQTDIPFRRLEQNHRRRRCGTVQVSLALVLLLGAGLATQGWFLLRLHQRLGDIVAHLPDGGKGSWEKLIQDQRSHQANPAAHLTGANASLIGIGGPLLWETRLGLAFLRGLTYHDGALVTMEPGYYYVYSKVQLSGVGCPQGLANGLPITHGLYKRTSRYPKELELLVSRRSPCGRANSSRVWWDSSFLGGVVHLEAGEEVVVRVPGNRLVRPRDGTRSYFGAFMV
# T3: mouse BTLA, soluble protein (analyte of the Octet assay) (mouse, UniProt Q7TSA3 30-183, limits assumed)
# T3 construct: The construct is not described; also called mBTLA; mBTLA-penta-His-tag
# T3 sequence (looked up): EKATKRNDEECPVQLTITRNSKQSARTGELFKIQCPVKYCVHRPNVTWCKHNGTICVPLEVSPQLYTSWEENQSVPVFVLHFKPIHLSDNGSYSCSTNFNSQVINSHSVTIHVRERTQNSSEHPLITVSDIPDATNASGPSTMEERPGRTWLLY
# T4: mouse CD160 residues I30-H154 with C-terminal …, refolded from E. coli inclusion bodies (mouse, UniProt O88875 30-154, biotin (mCD160-biotin in the cell staining assay; site not stated))
# T4 construct: range 30-154; also called mCD160; mCD160-biotin
# T4 sequence: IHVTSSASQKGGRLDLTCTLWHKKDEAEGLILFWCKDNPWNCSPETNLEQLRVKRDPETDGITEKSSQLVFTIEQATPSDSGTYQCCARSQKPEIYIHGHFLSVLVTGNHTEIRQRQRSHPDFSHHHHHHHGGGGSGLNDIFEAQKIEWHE
# Tests used:
# [1] = target: T1, mouse BTLA, full length, fused to EGFP, …; assay: cell-cell flow cytometry (mHVEM-mCherry cells + mBTLA-EGFP cells)
# Description: (§1) After 2˜3 days, the cells were harvested and diluted to […]. […] These cells were further recorded and analyzed by flow cytometry. […] The cells were incubated for 30 min with shaking at room temperature and washed once by PBS containing 0.2% BSA (PBS-BSA). The cells were re-suspended in 100 uL of PBS-BSA and analyzed by flow cytometry.
# [2] = target: T2, mouse LIGHT, full length, on …; assay: cell-cell flow cytometry (mHVEM-mCherry cells + mLIGHT-IRES-EGFP cells)
# Description: as §1
# [3] = target: T3, mouse BTLA, soluble protein (analyte of …); assay: cell-protein flow cytometry (mHVEM-mCherry cells + mBTLA-His/anti-His green)
# Description: as §1
# [4] = target: T4, mouse CD160 residues I30-H154 with …; assay: cell-protein flow cytometry (mHVEM-mCherry cells + mCD160-biotin/streptavidin-AF488)
# Description: as §1
binding result [1],binding result [2],binding result [3],binding result [4],Binder
binds,binds,,,"mouse HVEM, wild type, full length, fused to mCherry, on HEK293 FreeStyle cells (receptor, also called mHVEM; WT mHVEM; not shown: mCherry fused at the C-terminus (pmCherry-N1 vector)) QPSCRQEEFLVGDECCPMCNPGYHVKQVCSEHTGTVCAPCPPQTYTAHANGLSKCLPCGVCDPDMGLLTWQECSSWKDTVCRCIPGYFCENQDGSHCSTCLQHTTCPPGQRVEKRGTHDQDTVCADCLTGTFSLGGTQEECLPWTNCSAFQQEVRRGTNSTDTTCSSQVVYYVVSILLPLVIVGAGIAGFLICTRRHLHTSSVAKELEPFQEQQENTIRFPVTEVGFAETEEETASN"
,,no binding,,"mouse HVEM R43D-M56A-K64D triple mutation, full length, fused to mCherry, on cells (receptor, also called mHVEM R43D-M56A-K64D; not shown: mCherry fused at the C-terminus (pmCherry-N1 vector)) QPSCDQEEFLVGDECCPACNPGYHVDQVCSEHTGTVCAPCPPQTYTAHANGLSKCLPCGVCDPDMGLLTWQECSSWKDTVCRCIPGYFCENQDGSHCSTCLQHTTCPPGQRVEKRGTHDQDTVCADCLTGTFSLGGTQEECLPWTNCSAFQQEVRRGTNSTDTTCSSQVVYYVVSILLPLVIVGAGIAGFLICTRRHLHTSSVAKELEPFQEQQENTIRFPVTEVGFAETEEETASN"
binds,,,binds,"mouse HVEM H86D-L90A double mutein, full length, fused to mCherry, on cells (receptor, also called mHVEM H86D-L90A; mHVEM^-LIGHT; not shown: mCherry fused at the C-terminus (pmCherry-N1 vector)) QPSCRQEEFLVGDECCPMCNPGYHVKQVCSEHTGTVCAPCPPQTYTADANGASKCLPCGVCDPDMGLLTWQECSSWKDTVCRCIPGYFCENQDGSHCSTCLQHTTCPPGQRVEKRGTHDQDTVCADCLTGTFSLGGTQEECLPWTNCSAFQQEVRRGTNSTDTTCSSQVVYYVVSILLPLVIVGAGIAGFLICTRRHLHTSSVAKELEPFQEQQENTIRFPVTEVGFAETEEETASN"
no binding,binds,no binding,no binding,"G72D-V74D (receptor, on HEK293 FreeStyle cells; also called mHVEM G72D-V74D; not shown: mCherry reporter (and any vector linker) fused at the cytoplasmic C-terminus (pmCherry-N1)) QPSCRQEEFLVGDECCPMCNPGYHVKQVCSEHTDTDCAPCPPQTYTAHANGLSKCLPCGVCDPDMGLLTWQECSSWKDTVCRCIPGYFCENQDGSHCSTCLQHTTCPPGQRVEKRGTHDQDTVCADCLTGTFSLGGTQEECLPWTNCSAFQQEVRRGTNSTDTTCSSQVVYYVVSILLPLVIVGAGIAGFLICTRRHLHTSSVAKELEPFQEQQENTIRFPVTEVGFAETEEETASN"
binds,no binding,,binds,"H86A-L90A (receptor, on HEK293 FreeStyle cells; also called mHVEM H86A-L90A; not shown: mCherry reporter (and any vector linker) fused at the cytoplasmic C-terminus (pmCherry-N1)) QPSCRQEEFLVGDECCPMCNPGYHVKQVCSEHTGTVCAPCPPQTYTAAANGASKCLPCGVCDPDMGLLTWQECSSWKDTVCRCIPGYFCENQDGSHCSTCLQHTTCPPGQRVEKRGTHDQDTVCADCLTGTFSLGGTQEECLPWTNCSAFQQEVRRGTNSTDTTCSSQVVYYVVSILLPLVIVGAGIAGFLICTRRHLHTSSVAKELEPFQEQQENTIRFPVTEVGFAETEEETASN"
binds,no binding,,binds,"H86R-L90A (receptor, on HEK293 FreeStyle cells; also called mHVEM H86R-L90A; not shown: mCherry reporter (and any vector linker) fused at the cytoplasmic C-terminus (pmCherry-N1)) QPSCRQEEFLVGDECCPMCNPGYHVKQVCSEHTGTVCAPCPPQTYTARANGASKCLPCGVCDPDMGLLTWQECSSWKDTVCRCIPGYFCENQDGSHCSTCLQHTTCPPGQRVEKRGTHDQDTVCADCLTGTFSLGGTQEECLPWTNCSAFQQEVRRGTNSTDTTCSSQVVYYVVSILLPLVIVGAGIAGFLICTRRHLHTSSVAKELEPFQEQQENTIRFPVTEVGFAETEEETASN"
no binding,binds,no binding,no binding,"G72A-V74D (receptor, on HEK293 FreeStyle cells; also called mHVEM G72A-V74D; not shown: mCherry reporter (and any vector linker) fused at the cytoplasmic C-terminus (pmCherry-N1)) QPSCRQEEFLVGDECCPMCNPGYHVKQVCSEHTATDCAPCPPQTYTAHANGLSKCLPCGVCDPDMGLLTWQECSSWKDTVCRCIPGYFCENQDGSHCSTCLQHTTCPPGQRVEKRGTHDQDTVCADCLTGTFSLGGTQEECLPWTNCSAFQQEVRRGTNSTDTTCSSQVVYYVVSILLPLVIVGAGIAGFLICTRRHLHTSSVAKELEPFQEQQENTIRFPVTEVGFAETEEETASN"
binds,binds,,,"mouse HVEM A76D, full length, fused to mCherry, on cells (receptor, also called mHVEM A76D; not shown: mCherry fused at the C-terminus (pmCherry-N1 vector)) QPSCRQEEFLVGDECCPMCNPGYHVKQVCSEHTGTVCDPCPPQTYTAHANGLSKCLPCGVCDPDMGLLTWQECSSWKDTVCRCIPGYFCENQDGSHCSTCLQHTTCPPGQRVEKRGTHDQDTVCADCLTGTFSLGGTQEECLPWTNCSAFQQEVRRGTNSTDTTCSSQVVYYVVSILLPLVIVGAGIAGFLICTRRHLHTSSVAKELEPFQEQQENTIRFPVTEVGFAETEEETASN"
binds,no binding,,,"A76D_H86D_L90D (receptor, on HEK293 FreeStyle cells; also called mHVEM A76D-H86D-L90D; not shown: mCherry fused at the C-terminus (pmCherry-N1 vector)) QPSCRQEEFLVGDECCPMCNPGYHVKQVCSEHTGTVCDPCPPQTYTADANGDSKCLPCGVCDPDMGLLTWQECSSWKDTVCRCIPGYFCENQDGSHCSTCLQHTTCPPGQRVEKRGTHDQDTVCADCLTGTFSLGGTQEECLPWTNCSAFQQEVRRGTNSTDTTCSSQVVYYVVSILLPLVIVGAGIAGFLICTRRHLHTSSVAKELEPFQEQQENTIRFPVTEVGFAETEEETASN"
no binding,binds,no binding,no binding,"G72D-V74R (receptor, on HEK293 FreeStyle cells; also called mHVEM G72D-V74R; not shown: mCherry reporter (and any vector linker) fused at the cytoplasmic C-terminus (pmCherry-N1)) QPSCRQEEFLVGDECCPMCNPGYHVKQVCSEHTDTRCAPCPPQTYTAHANGLSKCLPCGVCDPDMGLLTWQECSSWKDTVCRCIPGYFCENQDGSHCSTCLQHTTCPPGQRVEKRGTHDQDTVCADCLTGTFSLGGTQEECLPWTNCSAFQQEVRRGTNSTDTTCSSQVVYYVVSILLPLVIVGAGIAGFLICTRRHLHTSSVAKELEPFQEQQENTIRFPVTEVGFAETEEETASN"
no binding,binds,no binding,no binding,"G72D-V74A (receptor, on HEK293 FreeStyle cells; also called mHVEM G72D-V74A; not shown: mCherry reporter (and any vector linker) fused at the cytoplasmic C-terminus (pmCherry-N1)) QPSCRQEEFLVGDECCPMCNPGYHVKQVCSEHTDTACAPCPPQTYTAHANGLSKCLPCGVCDPDMGLLTWQECSSWKDTVCRCIPGYFCENQDGSHCSTCLQHTTCPPGQRVEKRGTHDQDTVCADCLTGTFSLGGTQEECLPWTNCSAFQQEVRRGTNSTDTTCSSQVVYYVVSILLPLVIVGAGIAGFLICTRRHLHTSSVAKELEPFQEQQENTIRFPVTEVGFAETEEETASN"
binds,no binding,,binds,"H86D-L90R (receptor, on HEK293 FreeStyle cells; also called mHVEM H86D-L90R; not shown: mCherry reporter (and any vector linker) fused at the cytoplasmic C-terminus (pmCherry-N1)) QPSCRQEEFLVGDECCPMCNPGYHVKQVCSEHTGTVCAPCPPQTYTADANGRSKCLPCGVCDPDMGLLTWQECSSWKDTVCRCIPGYFCENQDGSHCSTCLQHTTCPPGQRVEKRGTHDQDTVCADCLTGTFSLGGTQEECLPWTNCSAFQQEVRRGTNSTDTTCSSQVVYYVVSILLPLVIVGAGIAGFLICTRRHLHTSSVAKELEPFQEQQENTIRFPVTEVGFAETEEETASN"
binds,no binding,,no binding,"A76D_H86D_L90A (receptor, on HEK293 FreeStyle cells; also called mHVEM A76D-H86D-L90A; not shown: mCherry fused at the C-terminus (pmCherry-N1 vector) and any vector linker) QPSCRQEEFLVGDECCPMCNPGYHVKQVCSEHTGTVCDPCPPQTYTADANGASKCLPCGVCDPDMGLLTWQECSSWKDTVCRCIPGYFCENQDGSHCSTCLQHTTCPPGQRVEKRGTHDQDTVCADCLTGTFSLGGTQEECLPWTNCSAFQQEVRRGTNSTDTTCSSQVVYYVVSILLPLVIVGAGIAGFLICTRRHLHTSSVAKELEPFQEQQENTIRFPVTEVGFAETEEETASN"
binds,no binding,,binds,"H86D-L90D (receptor, on HEK293 FreeStyle cells; also called mHVEM H86D-L90D; not shown: mCherry reporter (and any vector linker) fused at the cytoplasmic C-terminus (pmCherry-N1)) QPSCRQEEFLVGDECCPMCNPGYHVKQVCSEHTGTVCAPCPPQTYTADANGDSKCLPCGVCDPDMGLLTWQECSSWKDTVCRCIPGYFCENQDGSHCSTCLQHTTCPPGQRVEKRGTHDQDTVCADCLTGTFSLGGTQEECLPWTNCSAFQQEVRRGTNSTDTTCSSQVVYYVVSILLPLVIVGAGIAGFLICTRRHLHTSSVAKELEPFQEQQENTIRFPVTEVGFAETEEETASN"
